Experimental data taken from patent publication US8093212B2, “Methods of treating nerve-related vision disorders by an insulinomimetic agent” (The Penn State Research Foundation, priority 2002, dated 2012).
“Also recorded” adds a separate entry of the source.

Legend:
Akt = experiment: Intraportal insulin injection: retinal Akt (serine 473) phosphorylation Western blot; type: in vivo, Sprague-Dawley rats; conditions: retina, 45 minutes post-injection, 500 μg insulin bolus via portal vein
Description: (§1) Intraportal insulin injection was performed to determine if a single bolus insulin injection, and therefore an acute elevation in circulating insulin, could activate retinal insulin receptors (IR) in vivo as it does in other tissues. Intraportal insulin injection was conducted as follows. Male Sprague-Dawley rats (Charles River, Mass.) weighing 200 350 g were fasted 18 hours prior to being anesthetized with a 10:1 ketamine:xylazine cocktail (53.5 mg/kg ketamine and 5.33 mg/kg xylazine) administered by intramuscular injection. The fasted rats were administered a 500 μg bolus of insulin, nothing (sham), or vehicle (0.9% saline) via the portal vein. […]
(§2) Tissue lysates were immunoprecipitated and immunoblotted as described by Barber et al. (2001, J. Biol. Chem. 276: 32814 32831). Tissues were homogenized in an immunoprecipitation (IP) lysis buffer (consisting of 50 mM HEPES, pH 7.3, 137 mM NaCl, 1 mM MgCl2, 2 mM NaVO4, 10 mM Na2H2P2O7, 10 mM NaF, 2 mM EDTA, 2 mM PMSF, 10 mM benzamidine, 10% glycerol, 1% NP-40, and 1 protease inhibitor tablet (Boehringer-Mannheim) per 10 mL of buffer. Homogenates were rocked 15 minutes at 4° C. and then centrifuged at 14,000 rpm at 4° C. Prior to immunoprecipitation and immunoblotting, the resulting supernatant was subjected to protein assay (Bio-Rad) and quantification. […]

[1] = target: T1, insulin-like growth factor I receptor (IGF-IRβ) (Rattus norvegicus, UniProt P24062); experiment: Retinal explants: IGF-IRβ tyrosine phosphorylation; type: cell-based
T1 construct: from tissue; host or cells: rat retinal explants
T1 sequence (P24062 742-1370 limits assumed): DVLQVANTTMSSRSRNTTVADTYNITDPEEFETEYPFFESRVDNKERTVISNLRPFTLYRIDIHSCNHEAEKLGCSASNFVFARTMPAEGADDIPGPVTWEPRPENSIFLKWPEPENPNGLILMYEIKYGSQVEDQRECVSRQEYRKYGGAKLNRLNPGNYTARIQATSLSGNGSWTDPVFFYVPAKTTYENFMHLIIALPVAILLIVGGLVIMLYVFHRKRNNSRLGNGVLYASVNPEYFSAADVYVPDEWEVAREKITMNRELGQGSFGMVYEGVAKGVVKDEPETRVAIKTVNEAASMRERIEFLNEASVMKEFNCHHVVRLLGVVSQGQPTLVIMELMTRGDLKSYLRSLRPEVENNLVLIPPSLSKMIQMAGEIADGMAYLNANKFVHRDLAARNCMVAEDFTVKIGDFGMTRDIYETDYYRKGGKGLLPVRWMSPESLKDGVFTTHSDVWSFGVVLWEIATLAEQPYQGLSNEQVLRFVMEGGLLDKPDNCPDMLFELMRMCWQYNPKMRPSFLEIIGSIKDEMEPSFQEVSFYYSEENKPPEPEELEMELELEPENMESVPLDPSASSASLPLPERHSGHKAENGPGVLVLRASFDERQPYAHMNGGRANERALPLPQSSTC
T1 sequence (P24062 31-737 limits assumed): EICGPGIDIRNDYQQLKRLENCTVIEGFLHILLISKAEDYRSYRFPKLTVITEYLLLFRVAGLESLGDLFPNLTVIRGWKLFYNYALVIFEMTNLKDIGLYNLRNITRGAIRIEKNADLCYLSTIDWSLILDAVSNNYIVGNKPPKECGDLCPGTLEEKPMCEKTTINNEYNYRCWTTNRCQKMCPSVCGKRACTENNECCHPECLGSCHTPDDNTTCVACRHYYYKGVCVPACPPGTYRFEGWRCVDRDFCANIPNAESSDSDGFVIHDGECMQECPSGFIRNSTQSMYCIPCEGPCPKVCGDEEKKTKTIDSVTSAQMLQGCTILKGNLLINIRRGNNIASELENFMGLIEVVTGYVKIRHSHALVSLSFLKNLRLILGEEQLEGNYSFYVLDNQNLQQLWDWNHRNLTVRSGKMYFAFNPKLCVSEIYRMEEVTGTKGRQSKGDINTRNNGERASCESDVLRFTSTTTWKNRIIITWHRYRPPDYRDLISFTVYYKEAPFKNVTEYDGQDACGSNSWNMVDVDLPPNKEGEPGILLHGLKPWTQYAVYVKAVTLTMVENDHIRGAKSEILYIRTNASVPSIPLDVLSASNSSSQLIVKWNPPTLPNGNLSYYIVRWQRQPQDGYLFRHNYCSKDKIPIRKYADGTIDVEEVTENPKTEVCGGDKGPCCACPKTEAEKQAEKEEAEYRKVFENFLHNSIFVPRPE
Description: (§3) A tissue explant culture system was used to characterize insulin-signaling transduction in retina without the hindrance of the blood retinal barrier present in whole animal models. Such a tissue explant culture system was developed as follows. Rats as described in Examples 1 and 2 were anesthetized using sodium pentobarbital ([…]), and then decapitated upon loss of motor reflexes. Rat retinas were removed by cutting across the cornea, removing the lens, and squeezing the eyeball to rapidly extract the retina. Retinas were pre-incubated in MEM (Sigma) supplemented with 5 mM pyruvate and 10 mM HEPES for 15 minutes at 37° C., 5% CO2, and with gentle shaking. Ten nM insulin or vehicle was added following pre-incubation. At 2, 5, 15, and 30 minutes after insulin addition, retinas were snap-frozen in liquid nitrogen for future use.
Retinas were treated with either 1.3 nM IGF-1 or 0, 1, 10, 100, and 1000 nM insulin, and then retinal lysates were immunoprecipitated with an insulin-like growth factor I receptor (IGF-IRβ)-specific antibody, followed by PY Western blotting (shown in FIG. 6). The IGF1-R was immunoprecipitated and PY Western blotting performed as described above.

[2] = system: IR and Akt kinase pathway; experiment: Subconjunctival insulin administration: retinal IR and Akt kinase pathway activation; type: in vivo, Sprague-Dawley rats
[3] = 0.0325 U/100 g insulin, subconjunctival space
Description: This route of administration bypasses the BRB for a more direct route of insulin action on retina. […] The retina was processed for IRβ PY content as described in Example 1.

[4] = target: T2, insulin receptor beta-subunit (IRβ) (Rattus norvegicus, UniProt P15127); experiment: Retinal tissue explant culture: IRβ tyrosine phosphorylation; type: cell-based; design: from tissue; host or cells: rat retinal explants; conditions: 10 nM insulin
T2 sequence (P15127 764-1383 limits assumed): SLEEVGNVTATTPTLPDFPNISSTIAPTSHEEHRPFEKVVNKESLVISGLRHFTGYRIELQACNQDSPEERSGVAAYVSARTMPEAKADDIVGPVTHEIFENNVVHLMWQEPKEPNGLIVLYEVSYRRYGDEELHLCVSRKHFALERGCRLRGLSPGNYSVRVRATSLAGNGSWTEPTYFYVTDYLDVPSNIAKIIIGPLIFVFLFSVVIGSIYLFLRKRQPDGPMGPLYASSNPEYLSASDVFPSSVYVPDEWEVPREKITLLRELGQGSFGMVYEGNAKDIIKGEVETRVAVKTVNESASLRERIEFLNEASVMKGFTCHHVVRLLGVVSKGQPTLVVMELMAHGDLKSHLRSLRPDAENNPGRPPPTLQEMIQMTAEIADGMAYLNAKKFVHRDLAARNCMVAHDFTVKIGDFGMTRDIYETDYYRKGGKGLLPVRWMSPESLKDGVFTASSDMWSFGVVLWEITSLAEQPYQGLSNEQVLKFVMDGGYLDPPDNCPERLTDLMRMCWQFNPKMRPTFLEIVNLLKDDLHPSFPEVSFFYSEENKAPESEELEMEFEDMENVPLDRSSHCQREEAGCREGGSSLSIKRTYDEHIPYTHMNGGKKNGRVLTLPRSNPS
T2 sequence (P15127 27-759 limits assumed): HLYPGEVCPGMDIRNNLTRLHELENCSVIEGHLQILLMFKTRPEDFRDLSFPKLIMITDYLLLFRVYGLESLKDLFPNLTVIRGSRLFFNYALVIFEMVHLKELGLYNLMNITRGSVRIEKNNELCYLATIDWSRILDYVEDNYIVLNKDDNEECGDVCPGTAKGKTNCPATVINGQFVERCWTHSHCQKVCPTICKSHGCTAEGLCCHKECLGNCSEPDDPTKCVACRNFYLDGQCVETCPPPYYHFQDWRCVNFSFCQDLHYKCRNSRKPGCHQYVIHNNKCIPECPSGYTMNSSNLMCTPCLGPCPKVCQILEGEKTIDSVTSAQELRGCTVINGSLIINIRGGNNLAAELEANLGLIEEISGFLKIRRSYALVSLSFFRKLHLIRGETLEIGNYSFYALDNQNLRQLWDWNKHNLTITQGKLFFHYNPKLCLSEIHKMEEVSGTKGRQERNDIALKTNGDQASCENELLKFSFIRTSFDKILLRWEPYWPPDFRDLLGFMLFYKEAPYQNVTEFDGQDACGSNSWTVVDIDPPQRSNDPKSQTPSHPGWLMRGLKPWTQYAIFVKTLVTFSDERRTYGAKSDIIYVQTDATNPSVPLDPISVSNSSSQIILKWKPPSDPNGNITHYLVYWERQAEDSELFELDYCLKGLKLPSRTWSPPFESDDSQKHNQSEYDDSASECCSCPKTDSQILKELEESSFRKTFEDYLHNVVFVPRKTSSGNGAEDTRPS
Description: as §3
To examine the time course of insulin signaling events in the tissue, insulin-treated retinas were compared to retinas that received vehicle (0.9% saline) and to untreated retinas. Tissues were analyzed by immunoprecipitation and Western blotting as described in Example 1.

[5] = target: T2, insulin receptor beta-subunit (IRβ); experiment: Intraportal insulin injection: muscle IRβ tyrosine phosphorylation (PY Western blot); type: in vivo, Sprague-Dawley rats; design: hindquarter skeletal muscle and retina were snap-frozen under liquid nitrogen; from tissue; host or cells: rat retina; conditions: 500 μg insulin bolus via portal vein
Description: Intraportal insulin injection was performed to determine if a single bolus insulin injection, and therefore an acute elevation in circulating insulin, could activate retinal insulin receptors (IR) in vivo as it does in other tissues. Intraportal insulin injection was conducted as follows. Male Sprague-Dawley rats (Charles River, Mass.) weighing 200 350 g were fasted 18 hours prior to being anesthetized with a 10:1 ketamine:xylazine cocktail (53.5 mg/kg ketamine and 5.33 mg/kg xylazine) administered by intramuscular injection. The fasted rats were administered a 500 μg bolus of insulin, nothing (sham), or vehicle (0.9% saline) via the portal vein. At 15, 30, 45 and 60 minutes post injection (shown in FIG. 2A), hindquarter skeletal muscle and retina were snap-frozen under liquid nitrogen, and then stored at −80° C. pending analysis by immunoprecipitation and immunoblotting. There was no difference in insulin receptor beta-subunit (IRβ) phosphorylation between vehicle (V) and insulin (I) injection.
Tissue lysates were immunoprecipitated and immunoblotted as described by Barber et al. (2001, J. Biol. Chem. 276: 32814 32831). Tissues were homogenized in an immunoprecipitation (IP) lysis buffer (consisting of 50 mM HEPES, pH 7.3, 137 mM NaCl, 1 mM MgCl2, 2 mM NaVO4, 10 mM Na2H2P2O7, 10 mM NaF, 2 mM EDTA, 2 mM PMSF, 10 mM benzamidine, 10% glycerol, 1% NP-40, and 1 protease inhibitor tablet (Boehringer-Mannheim) per 10 mL of buffer. Homogenates were rocked 15 minutes at 4° C. and then centrifuged at 14,000 rpm at 4° C. Prior to immunoprecipitation and immunoblotting, the resulting supernatant was subjected to protein assay (Bio-Rad) and quantification.
Immunoprecipitations were performed as follows. […] Fifty μg of protein per sample were analyzed by SDS-polyacrylamide gel electrophoresis (SDS-PAGE). […] Positive signals were detected with […] (ECL) kits (Cell Signaling) and electrochemifluoresence (ECF) kits (Amersham) each performed according to each manufacturer's protocol. […]

[6] = target: T2, insulin receptor beta-subunit (IRβ); experiment: Intraportal insulin injection: retina IRβ tyrosine phosphorylation (PY Western blot); type: in vivo, Sprague-Dawley rats; design: hindquarter skeletal muscle and retina were snap-frozen under liquid nitrogen; from tissue; host or cells: rat retina; conditions: 500 μg insulin bolus via portal vein, fasted rats
Description: as §1, §2

With insulin the “increase in phosphoserine 473 content of Akt over vehicle injected controls” value (Akt) was 48%, the IGF-IRβ phosphorylation ([1]; 10 nM insulin) was “remained unchanged” and the IGF-IRβ phosphorylation ([1]; 100 nM insulin, comparator 1.3 nM IGF-1) was “increased”. The “activation of the IR and Akt kinase pathway” value ([2]; 0.0325 U/100 g insulin, subconjunctival space, normal rats) was “activated”, the “retinal IRβ PY content, insulin eye compared to contralateral vehicle eye” value ([2]; subconjunctival insulin, FIG. 8) was “phosphorylated” and the “effect on blood glucose values” [3] was “without lowering blood glucose values”. The “retinal IRβ phosphotyrosine immunoreactivity, fold greater than baseline” value ([4]; 30 minute time point) was 3 fold, the “retinal IRβ phosphotyrosine immunoreactivity, fold greater” value ([4]; within 2 minutes of stimulation, normalized to total IRβ) was ~4 fold and the “retinal explant IRβ phosphorylation (qualitative)” value ([4]; 2, 5, 15 and 30 minutes, normalized to total IRβ) was “significant increase”. The “time of peak muscle IRβ phosphotyrosine increase” value ([5]; fasted rats) was 30 min, the “increase in phosphotyrosine content in muscle IRβ (PY/IRβ ratio)” value ([5]; fasted rats, 15 minutes post-injection, zero time point set to 1) was ~30 fold and the “muscle IRβ phosphorylation response (qualitative)” value ([5]; 15, 30, 45 and 60 minutes post injection) was “robust response; also recorded: significant increase”. The “time of maximal retinal IRβ tyrosine phosphorylation” value [6] was 45 min and the “time until retinal IRβ tyrosine phosphorylation increased” value [6] was 30 min.
